Source: article PMC2732903
Each block holds one molecule with its values, some of them ahead of it.

Tests used:
[1] = test system: 21Gmu (21G mu3) (DNA, single strand) GGCTTACGGTTAGCGTTAGGG; experiment: EMSA, inhibition of Topo IIIα binding; settings: 100 mM NaCl; 50 mM HEPES pH 7.9, room temperature; 50 nM Topo IIIα displaced; 20 nM DNA; indirect
[2] = test system: Wt26 (DNA, G4) TTAGGGTTAGGGTTAGGGTTAGGGTT; experiment: EMSA, inhibition of Topo IIIα binding; settings: 100 mM NaCl; 50 mM HEPES pH 7.9, room temperature; 50 nM Topo IIIα displaced; 20 nM DNA; indirect
[3] = test system: 21G (DNA, G4) GGGTTAGGGTTAGGGTTAGGG; experiment: EMSA, inhibition of Topo IIIα binding; settings: 100 mM NaCl; 50 mM HEPES pH 7.9, room temperature; 50 nM Topo IIIα displaced; 20 nM DNA; indirect
[4] = test system: Wt26 (DNA, G4) TTAGGGTTAGGGTTAGGGTTAGGGTT; experiment: EMSA, inhibition of hPOT1 binding; settings: 100 mM NaCl; 50 mM HEPES pH 7.9, room temperature; 30 nM hPOT1 displaced; 20 nM DNA; indirect
[5] = test system: S310 (DNA, single strand) CCAGCTCTGCTTTGCATCTTT; experiment: EMSA, inhibition of Topo IIIα binding; settings: 100 mM NaCl; 50 mM HEPES pH 7.9, room temperature; 50 nM Topo IIIα; 20 nM DNA; up to 10 µM telomestatin; indirect
[6] = target: T1, Topoisomerase IIIα (Topo III) (human, UniProt Q13472 1-1001); experiment: EMSA; no telomestatin; 50 mM HEPES pH 7.9, 100 mM NaCl, 0.1 mM EDTA, 4% sucrose, 2% glycerol, 0.1 mg/mL BSA, 0.02% bromophenol blue, 20 nM probe, room temperature 30 min; 1% agarose; settings: protein: recombinant
T1 sequence: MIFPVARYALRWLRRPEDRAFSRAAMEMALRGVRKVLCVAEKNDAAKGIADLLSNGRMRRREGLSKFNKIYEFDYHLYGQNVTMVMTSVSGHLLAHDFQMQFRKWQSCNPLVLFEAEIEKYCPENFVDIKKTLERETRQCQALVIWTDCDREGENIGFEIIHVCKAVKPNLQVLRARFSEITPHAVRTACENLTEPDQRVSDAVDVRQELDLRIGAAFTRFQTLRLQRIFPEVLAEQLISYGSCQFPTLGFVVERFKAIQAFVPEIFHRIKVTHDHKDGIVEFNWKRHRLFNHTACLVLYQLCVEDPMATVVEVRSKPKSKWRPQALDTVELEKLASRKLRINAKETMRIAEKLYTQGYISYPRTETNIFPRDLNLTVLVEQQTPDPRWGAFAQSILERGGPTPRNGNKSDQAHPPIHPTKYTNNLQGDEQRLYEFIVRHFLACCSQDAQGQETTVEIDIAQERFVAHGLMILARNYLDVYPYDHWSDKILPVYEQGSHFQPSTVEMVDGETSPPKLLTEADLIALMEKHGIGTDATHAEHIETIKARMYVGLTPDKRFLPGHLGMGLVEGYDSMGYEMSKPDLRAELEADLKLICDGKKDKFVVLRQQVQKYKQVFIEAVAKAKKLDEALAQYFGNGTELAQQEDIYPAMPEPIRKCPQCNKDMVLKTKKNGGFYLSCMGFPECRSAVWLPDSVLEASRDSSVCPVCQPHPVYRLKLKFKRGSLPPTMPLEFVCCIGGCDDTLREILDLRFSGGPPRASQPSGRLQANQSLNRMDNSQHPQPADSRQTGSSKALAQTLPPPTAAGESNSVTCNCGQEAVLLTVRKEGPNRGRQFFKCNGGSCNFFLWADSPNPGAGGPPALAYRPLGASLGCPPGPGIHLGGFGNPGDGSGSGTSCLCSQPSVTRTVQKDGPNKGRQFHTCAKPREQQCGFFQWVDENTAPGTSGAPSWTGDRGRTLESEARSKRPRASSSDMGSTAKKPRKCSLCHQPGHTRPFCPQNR

[7] = target: T1, Topoisomerase IIIα (Topo III); experiment: competition; unlabelled competitor vs 32P-24C (20 nM), Topo III 50 nM; 50 mM HEPES pH 7.9, 100 mM NaCl, 0.1 mM EDTA, 4% sucrose, 2% glycerol, 0.1 mg/mL BSA, 0.02% bromophenol blue, 20 nM probe, room temperature 30 min; 1% agarose; settings: protein: recombinant; G4-forming
[8] = target: T1, Topoisomerase IIIα (Topo III); experiment: EMSA; no ligand; probe 20 nM, Topo III 50 nM; 50 mM HEPES pH 7.9, 100 mM NaCl, 0.1 mM EDTA, 4% sucrose, 2% glycerol, 0.1 mg/mL BSA, 0.02% bromophenol blue, 20 nM probe, room temperature 30 min; 1% agarose; settings: protein: recombinant; label: 32P; single strand
[9] = target: T2, hPOT1 (human, UniProt Q9NUX5 1-634); experiment: EMSA; no telomestatin; POT1 30 nM, probe 20 nM; 50 mM HEPES pH 7.9, 100 mM NaCl, 0.1 mM EDTA, 4% sucrose, 2% glycerol, 0.1 mg/mL BSA, 0.02% bromophenol blue, 20 nM probe, room temperature 30 min; 1% agarose; settings: protein: recombinant; label: 32P; G4-forming
T2 sequence: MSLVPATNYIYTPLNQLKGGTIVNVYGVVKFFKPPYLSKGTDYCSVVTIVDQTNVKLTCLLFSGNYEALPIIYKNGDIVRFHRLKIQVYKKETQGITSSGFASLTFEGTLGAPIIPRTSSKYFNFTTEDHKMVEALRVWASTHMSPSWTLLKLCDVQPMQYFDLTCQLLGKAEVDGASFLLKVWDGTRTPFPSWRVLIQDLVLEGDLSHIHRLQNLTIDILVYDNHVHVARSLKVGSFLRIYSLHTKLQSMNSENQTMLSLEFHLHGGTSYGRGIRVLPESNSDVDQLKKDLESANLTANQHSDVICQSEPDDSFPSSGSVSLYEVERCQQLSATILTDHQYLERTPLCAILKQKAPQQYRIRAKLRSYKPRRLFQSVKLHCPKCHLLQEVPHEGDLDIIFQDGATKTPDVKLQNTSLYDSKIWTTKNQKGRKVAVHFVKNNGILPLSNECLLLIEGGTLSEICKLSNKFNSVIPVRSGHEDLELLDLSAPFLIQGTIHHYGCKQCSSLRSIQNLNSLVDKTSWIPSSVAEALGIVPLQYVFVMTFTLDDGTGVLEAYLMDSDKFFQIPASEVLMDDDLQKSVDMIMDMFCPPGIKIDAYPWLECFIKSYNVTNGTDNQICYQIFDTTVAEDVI

[10] = target: T1, Topoisomerase IIIα (Topo III); experiment: competition; unlabelled competitor vs 32P-24C; more potent than Pu22myc; non-G4 IC50s 4.3-10.1-fold lower than G4 oligos overall; 50 mM HEPES pH 7.9, 100 mM NaCl, 0.1 mM EDTA, 4% sucrose, 2% glycerol, 0.1 mg/mL BSA, 0.02% bromophenol blue, 20 nM probe, room temperature 30 min; 1% agarose; settings: protein: recombinant; single strand, cannot form G4

IC50 [1]: > 10000 nM
IC50 [2]: 60 nM
IC50 [3]: 300 nM
IC50 [4]: 100 nM
binding [5]: no
Molecule: Cc1oc2nc1-c1nc(co1)-c1nc(co1)-c1nc(co1)-c1nc(co1)-c1nc(co1)C1=NC(CS1)c1nc-2c(C)o1 (stereo not shown)

Molecule: GGCTTACGGTTAGCGTTAGGG (ssDNA) [21G mu3 (21Gmu)]
binding result ([6]; label: 32P when used as probe, single strand, cannot form G4): binds

Molecule: GAGGGTGGGGAGGGTGGGGAAG (structured_DNA) [Pu22myc]
binding signal [7]: ~3 fold higher concentration than Pu22mu needed to inhibit binding

Molecule: CCAGCTCTGCTTTGCATCTTT (ssDNA) [S310]
binding result ([6]; label: 32P): binds

Molecule: GGGTTAGGGTTAGGGTTAGGG (structured_DNA) [21G]
binding result ([6]; label: 32P when used as probe, G4-forming): binds

Molecule: CCCTAACCCTAACCCTAACCCTAA (ssDNA) [24C]
binding result [8]: binds

Molecule: TTAGGGTTAGGGTTAGGGTTAGGGTT (structured_DNA) [Wt26]
binding result [9]: binds
binding result ([6]; label: 32P, G4-forming): binds

Molecule: GAGGGTGAAGAGGGTGGGGAAG (ssDNA) [Pu22mu]
binding result [10]: binds
